# From patent US20260207704A1, “STAPLED PEPTIDES AND METHODS THEREOF” (priority 2022, published 2026)
# *1 amine or outer side, *2 acyl side, *3 side chain or, on linkers, in order; H or OH if unused. Bridges are numbered along the chain shown (N, C = ends). Primed or numbered codes have the meaning given here. [ ]: non-standard residue; d: D form. PyrS2(6) = (S)-3-amino-1-((pent-4-en-1-yloxy)carbonyl)pyrrolidine-3-carboxylic acid, stapled with another olefin-containing amino acid residue through the olefin group, O=C(OCCCC=[*:3])N1CC[C@@](N[*:1])(C(=O)[*:2])C1; B5(4) = 2-amino-2-(pent-4-en-1-yl)hept-6-enoic acid, stapled through each of its two olefin groups with other olefin-containing amino acid residues, O=C(C(CCCC=[*:3])(CCCC=[*:4])N[*:1])[*:2]; PyrS2″ = (S)-3-amino-1-((pent-4-en-1-yloxy)carbonyl)pyrrolidine-3-carboxylic acid (olefin stapling residue), C=CCCCOC(=O)N1CC[C@@](N[*:1])(C(=O)[*:2])C1; PyrS2 = (S)-3-amino-1-((pent-4-en-1-yloxy)carbonyl)pyrrolidine-3-carboxylic acid, olefin staple residue, C=CCCCOC(=O)N1CC[C@@](N[*:1])(C(=O)[*:2])C1; PyrS2(3) = (S)-3-amino-1-((pent-4-en-1-yloxy)carbonyl)pyrrolidine-3-carboxylic acid, olefin residue, C=CCCCOC(=O)N1CC[C@@](N[*:1])(C(=O)[*:2])C1; TriAzLys = (S)-2-amino-5-(1H-1,2,3-triazol-1-yl)pentanoic acid, stapled through triazole 4-position, O=C([C@H](CCCn1cc([*:3])nn1)N[*:1])[*:2]; PyrS2(5) = (S)-3-amino-1-((pent-4-en-1-yloxy)carbonyl)pyrrolidine-3-carboxylic acid, C=CCCCOC(=O)N1CC[C@@](N[*:1])(C(=O)[*:2])C1; B5″ = 2-amino-2-(pent-4-en-1-yl)hept-6-enoic acid (bis-olefin stapling residue), C=CCCCC(CCCC=C)(N[*:1])C(=O)[*:2]; B5(5) = 2-amino-2-(pent-4-en-1-yl)hept-6-enoic acid (two olefin arms), C=CCCCC(CCCC=C)(N[*:1])C(=O)[*:2]; B5(3) = 2-amino-2-(pent-4-en-1-yl)hept-6-enoic acid, two olefin arms, C=CCCCC(CCCC=C)(N[*:1])C(=O)[*:2]; TriAzLys″ = azidolysine residue closed into triazole staple, O=C([C@H](CCCCn1cc([*:3])nn1)N[*:1])[*:2]; 2F3MeF″ = aromatic residue, Cc1cccc(C[C@H](N[*:1])C(=O)[*:2])c1F; Phe(3-COOH) = N[C@@H](Cc1cccc(C(=O)O)c1)C(=O)O; 2F3MeF = Cc1cccc(C[C@H](N[*:1])C(=O)[*:2])c1F; Abu(4-yl) = O=C([C@H](CC[*:3])N[*:1])[*:2]; Bta = N[C@@H](Cc1csc2ccccc12)C(=O)O; αAllylPro = C=CC[C@@]1(C(=O)O)CCCN1; tBuAla = CC(C)(C)C[C@H](N)C(=O)O; 3Thi = N[C@@H](Cc1ccsc1)C(=O)O; TriAzLys(3) = not defined here; 2F3MeF(4) = Phe analogue; Orn = NCCC[C@H](N)C(=O)O; AsnR = not defined here; GlnR = not defined here; sAla = not defined here; PL3 = not defined here; B5 = not defined here; Aib = CC(C)(N)C(=O)O
# B1: I-43 (peptide)
# peptide: Ac-[αAllylPro]D[tBuAla][B5(5)]D[Phe(3-COOH)]AAF[GlnR][PyrS2(5)][3Thi][Bta]KA-NH2
# modifications: bridge 10-14; reading uncertain; also: PL3/B5/PyrS2 staple links not placed, printed as Ac-PL3-Asp-Npg-B5-Asp-3COOHF-Ala-Ala-Phe-GlnR*3-PyrS2-3Thi-BztA-Lys*3-Ala-NH2
# B2: I-32 (peptide)
# peptide: Ac-[αAllylPro]D[tBuAla][B5(4)]D[Phe(3-COOH)]AAFK[PyrS2(6)][3Thi][Bta][GlnR]-NH2
# modifications: bridge 10-14; not fully specified (bridges); printed as Ac-PL3-Asp-Npg-B5-Asp-3COOHF-Ala-Ala-Phe-Lys*3-PyrS2-3Thi-BztA-GlnR*3-NH2; reading uncertain
# B3: I-42 (peptide)
# peptide: Ac-[αAllylPro]D[tBuAla][B5(5)]D[Phe(3-COOH)]AAFK[PyrS2(5)][3Thi][Bta][GlnR]A-NH2
# modifications: bridge 10-14; reading uncertain; also: PL3/B5/PyrS2 staple links not placed, printed as Ac-PL3-Asp-Npg-B5-Asp-3COOHF-Ala-Ala-Phe-Lys*3-PyrS2-3Thi-BztA-GlnR*3-Ala-NH2
# B4: I-21 (peptide)
# peptide: Ac-[PL3]D[tBuAla][B5(4)]D[Phe(3-COOH)]AAF[TriAzLys″][PyrS2″][2F3MeF][Bta][sAla]-NH2
# modifications: triazole 10-14; not fully specified (bridges); printed as Ac-PL3-Asp-Npg-B5-Asp-3COOHF-Ala-Ala-Phe-TriAzLys*3-PyrS2-2F3MeF-BztA-sAla*3-NH2; reading uncertain
# B5: I-33 (peptide)
# peptide: Ac-[αAllylPro]D[tBuAla][B5(4)]D[Phe(3-COOH)]AAF[GlnR][PyrS2(6)][3Thi][Bta]K-NH2
# modifications: bridge 10-14; not fully specified (bridges); printed as Ac-PL3-Asp-Npg-B5-Asp-3COOHF-Ala-Ala-Phe-GlnR*3-PyrS2-3Thi-BztA-Lys*3-NH2; reading uncertain
# B6: I-24 (peptide)
# peptide: Ac-[αAllylPro]D[tBuAla][B5(4)]D[Phe(3-COOH)]AAF[sAla][PyrS2(6)][3Thi][Bta][TriAzLys(3)]-NH2
# modifications: triazole 10-14; not fully specified (bridges); printed as Ac-PL3-Asp-Npg-B5-Asp-3COOHF-Ala-Ala-Phe-sAla*3-PyrS2-3Thi-BztA-TriAzLys*3-NH2; reading uncertain
# B7: I-23 (peptide)
# peptide: Ac-[PL3]D[tBuAla][B5(4)]DDAAF[sAla][PyrS2″][3Thi][Bta][TriAzLys″]-NH2
# modifications: triazole 10-14; not fully specified (bridges); printed as Ac-PL3-Asp-Npg-B5-Asp-Asp-Ala-Ala-Phe-sAla*3-PyrS2-3Thi-BztA-TriAzLys*3-NH2; reading uncertain
# B8: I-55 (peptide)
# peptide: Ac-[αAllylPro]D[tBuAla][B5(3)]D[Phe(3-COOH)]AAFK[PyrS2(3)][2F3MeF″][Bta][GlnR]-NH2
# modifications: bridge 10-14; not fully specified (bridges); printed as Ac-PL3-Asp-Npg-B5-Asp-3COOHF-Ala-Ala-Phe-Lys*3-PyrS2-2F3MeF-BztA-GlnR*3-NH2; reading uncertain
# B9: I-34 (peptide)
# peptide: Ac-[αAllylPro]D[tBuAla][B5(5)]D[Phe(3-COOH)]AAFK[PyrS2(5)][3Thi][Bta][AsnR]-NH2
# modifications: bridge 10-14; not fully specified (bridges); printed as Ac-PL3-Asp-Npg-B5-Asp-3COOHF-Ala-Ala-Phe-Lys*3-PyrS2-3Thi-BztA-AsnR*3-NH2; reading uncertain
# B10: I-38 (peptide)
# peptide: Ac-[αAllylPro]D[tBuAla][B5(5)]D[Phe(3-COOH)]AAF[GlnR][PyrS2(5)][3Thi][Bta][Orn]-NH2
# modifications: bridge 10-14; not fully specified (bridges); printed as Ac-PL3-Asp-Npg-B5-Asp-3COOHF-Ala-Ala-Phe-GlnR*3-PyrS2-3Thi-BztA-Orn*3-NH2; reading uncertain
# B11: I-19 (peptide)
# peptide: Ac-[PL3]D[tBuAla][B5(4)]D[Phe(3-COOH)]AAF[TriAzLys″][PyrS2″][3Thi][Bta][sAla]-NH2
# modifications: triazole 10-14; not fully specified (bridges); printed as Ac-PL3-Asp-Npg-B5-Asp-3COOHF-Ala-Ala-Phe-TriAzLys*3-PyrS2-3Thi-BztA-sAla*3-NH2; reading uncertain
# B12: I-37 (peptide)
# peptide: Ac-[αAllylPro]D[tBuAla][B5(5)]D[Phe(3-COOH)]AAF[Orn][PyrS2(5)][3Thi][Bta][GlnR]-NH2
# modifications: bridge 10-14; not fully specified (bridges); printed as Ac-PL3-Asp-Npg-B5-Asp-3COOHF-Ala-Ala-Phe-Orn*3-PyrS2-3Thi-BztA-GlnR*3-NH2; reading uncertain
# B13: I-66 (peptide)
# peptide: Ac-[αAllylPro]D[tBuAla][B5]D[Phe(3-COOH)][Aib]AFK[PyrS2][3Thi][Bta][GlnR]A-NH2
# modifications: staple 1-4, 4-11; lactam 10-14; not fully specified; printed as Ac-PL3-Asp-Npg-B5-Asp-3COOHF-Aib-Ala-Phe-Lys*3-PyrS2-3Thi-BztA-GlnR*3-Ala-NH2; reading uncertain
# B14: I-31 (peptide)
# peptide: Ac-[αAllylPro]D[tBuAla][B5(4)]D[Phe(3-COOH)][TriAzLys(3)]AF[sAla][PyrS2(6)][2F3MeF(4)][Bta]Q-NH2
# modifications: triazole 7-10; not fully specified (bridges); printed as Ac-PL3-Asp-Npg-B5-Asp-3COOHF-TriAzLys*3-Ala-Phe-sAla*3-PyrS2-2F3MeF-BztA-Gln-NH2; reading uncertain
# B15: I-25 (peptide)
# peptide: Ac-[αAllylPro]D[tBuAla][B5(4)]D[Phe(3-COOH)]AAF[sAla][PyrS2(6)][2F3MeF(4)][Bta][TriAzLys(3)]-NH2
# modifications: triazole 10-14; not fully specified (bridges); printed as Ac-PL3-Asp-Npg-B5-Asp-3COOHF-Ala-Ala-Phe-sAla*3-PyrS2-2F3MeF-BztA-TriAzLys*3-NH2; reading uncertain
# B16: I-56 (peptide)
# peptide: Ac-[αAllylPro]D[tBuAla][B5(3)]D[Phe(3-COOH)]AAFK[PyrS2(3)][2F3MeF″][Bta][AsnR]-NH2
# modifications: bridge 10-14; not fully specified (bridges); printed as Ac-PL3-Asp-Npg-B5-Asp-3COOHF-Ala-Ala-Phe-Lys*3-PyrS2-2F3MeF-BztA-AsnR*3-NH2; reading uncertain
# B17: I-29 (peptide)
# peptide: Ac-[αAllylPro]D[tBuAla][B5(4)]DD[TriAzLys(3)]AF[sAla][PyrS2(6)][3Thi][Bta]Q-NH2
# modifications: triazole 7-10; not fully specified (bridges); printed as Ac-PL3-Asp-Npg-B5-Asp-Asp-TriAzLys*3-Ala-Phe-sAla*3-PyrS2-3Thi-BztA-Gln-NH2; reading uncertain
# B18: I-30 (peptide)
# peptide: Ac-[αAllylPro]D[tBuAla][B5(4)]D[Phe(3-COOH)][TriAzLys(3)]AF[sAla][PyrS2(6)][3Thi][Bta]Q-NH2
# modifications: triazole 7-10; not fully specified (bridges); printed as Ac-PL3-Asp-Npg-B5-Asp-3COOHF-TriAzLys*3-Ala-Phe-sAla*3-PyrS2-3Thi-BztA-Gln-NH2; reading uncertain
# B19: I-39 (peptide)
# peptide: Ac-[αAllylPro]D[tBuAla][B5(5)]D[Phe(3-COOH)]AAF[Orn][PyrS2(5)][3Thi][Bta][AsnR]-NH2
# modifications: bridge 10-14; not fully specified (bridges); printed as Ac-PL3-Asp-Npg-B5-Asp-3COOHF-Ala-Ala-Phe-Orn*3-PyrS2-3Thi-BztA-AsnR*3-NH2; reading uncertain
# Molecular target: beta-catenin (human)
# Sequence (B6V8E6 146-665 limits assumed): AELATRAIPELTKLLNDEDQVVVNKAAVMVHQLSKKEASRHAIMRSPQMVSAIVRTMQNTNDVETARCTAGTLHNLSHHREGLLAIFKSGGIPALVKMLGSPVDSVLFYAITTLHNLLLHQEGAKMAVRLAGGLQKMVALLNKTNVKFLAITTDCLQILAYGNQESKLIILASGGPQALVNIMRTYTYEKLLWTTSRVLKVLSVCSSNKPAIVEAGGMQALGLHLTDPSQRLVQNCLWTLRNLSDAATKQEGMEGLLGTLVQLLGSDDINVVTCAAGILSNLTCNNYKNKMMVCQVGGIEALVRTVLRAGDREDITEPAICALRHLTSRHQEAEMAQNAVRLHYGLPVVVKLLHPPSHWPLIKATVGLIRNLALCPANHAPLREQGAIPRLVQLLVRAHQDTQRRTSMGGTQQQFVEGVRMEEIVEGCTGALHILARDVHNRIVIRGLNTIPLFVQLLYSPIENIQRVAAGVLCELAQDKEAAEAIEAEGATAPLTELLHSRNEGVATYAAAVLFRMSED
# Test: cell-based or functional assay
Binder,NanoBRET Abs IC50 (bin >1.5 uM),NanoBRET Abs IC50,NanoBRET Abs IC50 (bin >3.0 uM),"AXIN2 expression IC50, COLO320DM cells","AXIN2 expression IC50, DLD1 cells","SP5 expression IC50, DLD1 cells"
B1,< 3 µM,–,–,–,–,–
B2,–,< 1.5 µM,–,–,–,–
B3,< 3 µM,–,–,–,–,–
B4,< 3 µM,–,–,–,–,–
B5,–,–,< 10 µM,–,–,–
B6,–,–,< 10 µM,–,–,–
B7,–,–,< 10 µM,–,–,–
B8,< 3 µM,–,–,–,–,–
B9,–,–,< 10 µM,–,–,–
B10,–,–,< 10 µM,–,–,–
B11,–,–,< 10 µM,–,–,–
B12,–,–,< 10 µM,–,–,–
B13,–,–,–,0.3 µM,1.6 µM,1.3 µM
B14,–,> 10 µM,–,–,–,–
B15,–,–,< 10 µM,–,–,–
B16,–,–,< 10 µM,–,–,–
B17,–,> 10 µM,–,–,–,–
B18,–,> 10 µM,–,–,–,–
B19,–,> 10 µM,–,–,–,–
Ac-[αAllylPro]D[tBuAla][B5″]DDAAF[TriAzLys][PyrS2″][3Thi][Bta][Abu(4-yl)]-NH2 (triazole 10-14; also: PL3-B5 and PyrS2 links not placed) [I-17],–,> 10 µM,–,–,–,–

# Molecular target: beta-catenin (human)
# Test: fluorescence polarization
row,Binder,IC50
1,B1,< 0.05 µM
2,B2,< 0.05 µM
3,B3,< 0.05 µM
4,B4,< 0.05 µM
5,B5,< 0.05 µM
6,B6,< 0.05 µM
7,B7,< 0.05 µM
8,B8,< 0.05 µM
9,B9,< 0.05 µM
10,B10,< 0.05 µM
11,B11,< 0.05 µM
12,B12,< 0.05 µM
13,B13,< 0.05 µM
14,B14,< 0.05 µM
15,B15,< 0.05 µM
16,B16,< 0.05 µM
17,B17,< 0.05 µM
18,B18,< 0.05 µM
19,B19,< 0.05 µM
20,Ac-[αAllylPro]D[tBuAla][B5″]DDAAF[TriAzLys][PyrS2″][3Thi][Bta][Abu(4-yl)]-NH2 (triazole 10-14; also: PL3-B5 and PyrS2 links not placed) [I-17],< 0.05 µM
